Test results from PMC8215223.

T1: tubulin (endogenous), P07437
T1 chain: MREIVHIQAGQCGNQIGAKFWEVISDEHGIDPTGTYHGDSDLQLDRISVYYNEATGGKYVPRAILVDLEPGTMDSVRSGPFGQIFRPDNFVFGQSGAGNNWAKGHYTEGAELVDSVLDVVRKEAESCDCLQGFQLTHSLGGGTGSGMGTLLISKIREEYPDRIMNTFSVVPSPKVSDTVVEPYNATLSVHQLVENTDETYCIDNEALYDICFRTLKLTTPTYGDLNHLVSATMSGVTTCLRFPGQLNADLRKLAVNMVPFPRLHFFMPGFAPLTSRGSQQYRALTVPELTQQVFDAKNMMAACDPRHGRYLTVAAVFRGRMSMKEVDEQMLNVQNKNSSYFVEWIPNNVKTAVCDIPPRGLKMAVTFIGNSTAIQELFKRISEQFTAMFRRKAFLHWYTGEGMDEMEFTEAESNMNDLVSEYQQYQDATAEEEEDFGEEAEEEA


Biological target: T1, tubulin (endogenous), P07437
Experiment: coIP (co-immunoprecipitation, blot band intensity quantified)
Conditions: chain shown with the change; HeLa cells, 100 ng/mL nocodazole for 16 hr (+); parent: est. 7.8; read off a plot

| response [A.U] | Binder |
| --- | --- |
| 8.8 | GFP-WT-HOOK3, Q86VS8 S238A (protein) MFSVESLERAELCESLLTWIQTFNVDAPCQTVEDLTNGVVMAQVLQKIDPAYFDENWLNRIKTEVGDNWRLKISNLKKILKGILDYNHEILGQQINDFTLPDVNLIGEHSDAAELGRMLQLILGCAVNCEQKQEYIQAIMMMEESVQHVVMTAIQELMSKESPVSAGNDAYVDLDRQLKKTTEELNEALSAKEEIAQRCHELDMQVAALQEEKSSLLAENQVLMERLNQSDSIEDPNAPAGRRHLQLQTQLEQLQEETFRLEAAKDDYRIRCEELEKEISELRQQNDELTTLADEAQSLKDEIDVLRHSSDKVSKLEGQVESYKKKLEDLGDLRRQVKLLEEKNTMYMQNTVSLEEELRKANAARSQLETYKRQVVELQNRLSEESKKADKLDFEYKRLKEKVDSLQKEKDRLRTERDSLKETIEELRCVQAQEGQLTTQGLMPLGSQESSDSLAAEIVTPEIREKLIRLQHENKMLKLNQEGSDNEKIALLQSLLDDANLRKNELETENRLVNQRLLEVQSQVEELQKSLQDQGSKAEDSVLLKKKLEEHLEKLHEANNELQKKRAIIEDLEPRFNNSSLKIEELQEALRKKEEEMKQMEERYKKYLEKAKSVIRTLDPKQNQGAAPEIQALKNQLQERDRLFHSLEKEYEKTKSQREMEEKYIVSAWYNMGMTLHKKAAEDRLASTGSGQSFLARQRQATSSRRSYPGHVQPATAR |
| 19 | GFP-WT-HOOK3, Q86VS8 S238A; S707A (protein) MFSVESLERAELCESLLTWIQTFNVDAPCQTVEDLTNGVVMAQVLQKIDPAYFDENWLNRIKTEVGDNWRLKISNLKKILKGILDYNHEILGQQINDFTLPDVNLIGEHSDAAELGRMLQLILGCAVNCEQKQEYIQAIMMMEESVQHVVMTAIQELMSKESPVSAGNDAYVDLDRQLKKTTEELNEALSAKEEIAQRCHELDMQVAALQEEKSSLLAENQVLMERLNQSDSIEDPNAPAGRRHLQLQTQLEQLQEETFRLEAAKDDYRIRCEELEKEISELRQQNDELTTLADEAQSLKDEIDVLRHSSDKVSKLEGQVESYKKKLEDLGDLRRQVKLLEEKNTMYMQNTVSLEEELRKANAARSQLETYKRQVVELQNRLSEESKKADKLDFEYKRLKEKVDSLQKEKDRLRTERDSLKETIEELRCVQAQEGQLTTQGLMPLGSQESSDSLAAEIVTPEIREKLIRLQHENKMLKLNQEGSDNEKIALLQSLLDDANLRKNELETENRLVNQRLLEVQSQVEELQKSLQDQGSKAEDSVLLKKKLEEHLEKLHEANNELQKKRAIIEDLEPRFNNSSLKIEELQEALRKKEEEMKQMEERYKKYLEKAKSVIRTLDPKQNQGAAPEIQALKNQLQERDRLFHSLEKEYEKTKSQREMEEKYIVSAWYNMGMTLHKKAAEDRLASTGSGQSFLARQRQATSSRRAYPGHVQPATAR |
| 12 | GFP-WT-HOOK3, Q86VS8 S707E (protein) MFSVESLERAELCESLLTWIQTFNVDAPCQTVEDLTNGVVMAQVLQKIDPAYFDENWLNRIKTEVGDNWRLKISNLKKILKGILDYNHEILGQQINDFTLPDVNLIGEHSDAAELGRMLQLILGCAVNCEQKQEYIQAIMMMEESVQHVVMTAIQELMSKESPVSAGNDAYVDLDRQLKKTTEELNEALSAKEEIAQRCHELDMQVAALQEEKSSLLAENQVLMERLNQSDSIEDPNSPAGRRHLQLQTQLEQLQEETFRLEAAKDDYRIRCEELEKEISELRQQNDELTTLADEAQSLKDEIDVLRHSSDKVSKLEGQVESYKKKLEDLGDLRRQVKLLEEKNTMYMQNTVSLEEELRKANAARSQLETYKRQVVELQNRLSEESKKADKLDFEYKRLKEKVDSLQKEKDRLRTERDSLKETIEELRCVQAQEGQLTTQGLMPLGSQESSDSLAAEIVTPEIREKLIRLQHENKMLKLNQEGSDNEKIALLQSLLDDANLRKNELETENRLVNQRLLEVQSQVEELQKSLQDQGSKAEDSVLLKKKLEEHLEKLHEANNELQKKRAIIEDLEPRFNNSSLKIEELQEALRKKEEEMKQMEERYKKYLEKAKSVIRTLDPKQNQGAAPEIQALKNQLQERDRLFHSLEKEYEKTKSQREMEEKYIVSAWYNMGMTLHKKAAEDRLASTGSGQSFLARQRQATSSRREYPGHVQPATAR |
| 8.5 | GFP-WT-HOOK3, Q86VS8 S707A (protein) MFSVESLERAELCESLLTWIQTFNVDAPCQTVEDLTNGVVMAQVLQKIDPAYFDENWLNRIKTEVGDNWRLKISNLKKILKGILDYNHEILGQQINDFTLPDVNLIGEHSDAAELGRMLQLILGCAVNCEQKQEYIQAIMMMEESVQHVVMTAIQELMSKESPVSAGNDAYVDLDRQLKKTTEELNEALSAKEEIAQRCHELDMQVAALQEEKSSLLAENQVLMERLNQSDSIEDPNSPAGRRHLQLQTQLEQLQEETFRLEAAKDDYRIRCEELEKEISELRQQNDELTTLADEAQSLKDEIDVLRHSSDKVSKLEGQVESYKKKLEDLGDLRRQVKLLEEKNTMYMQNTVSLEEELRKANAARSQLETYKRQVVELQNRLSEESKKADKLDFEYKRLKEKVDSLQKEKDRLRTERDSLKETIEELRCVQAQEGQLTTQGLMPLGSQESSDSLAAEIVTPEIREKLIRLQHENKMLKLNQEGSDNEKIALLQSLLDDANLRKNELETENRLVNQRLLEVQSQVEELQKSLQDQGSKAEDSVLLKKKLEEHLEKLHEANNELQKKRAIIEDLEPRFNNSSLKIEELQEALRKKEEEMKQMEERYKKYLEKAKSVIRTLDPKQNQGAAPEIQALKNQLQERDRLFHSLEKEYEKTKSQREMEEKYIVSAWYNMGMTLHKKAAEDRLASTGSGQSFLARQRQATSSRRAYPGHVQPATAR |
| 9 | GFP-WT-HOOK3, Q86VS8 S238E; S707E (protein) MFSVESLERAELCESLLTWIQTFNVDAPCQTVEDLTNGVVMAQVLQKIDPAYFDENWLNRIKTEVGDNWRLKISNLKKILKGILDYNHEILGQQINDFTLPDVNLIGEHSDAAELGRMLQLILGCAVNCEQKQEYIQAIMMMEESVQHVVMTAIQELMSKESPVSAGNDAYVDLDRQLKKTTEELNEALSAKEEIAQRCHELDMQVAALQEEKSSLLAENQVLMERLNQSDSIEDPNEPAGRRHLQLQTQLEQLQEETFRLEAAKDDYRIRCEELEKEISELRQQNDELTTLADEAQSLKDEIDVLRHSSDKVSKLEGQVESYKKKLEDLGDLRRQVKLLEEKNTMYMQNTVSLEEELRKANAARSQLETYKRQVVELQNRLSEESKKADKLDFEYKRLKEKVDSLQKEKDRLRTERDSLKETIEELRCVQAQEGQLTTQGLMPLGSQESSDSLAAEIVTPEIREKLIRLQHENKMLKLNQEGSDNEKIALLQSLLDDANLRKNELETENRLVNQRLLEVQSQVEELQKSLQDQGSKAEDSVLLKKKLEEHLEKLHEANNELQKKRAIIEDLEPRFNNSSLKIEELQEALRKKEEEMKQMEERYKKYLEKAKSVIRTLDPKQNQGAAPEIQALKNQLQERDRLFHSLEKEYEKTKSQREMEEKYIVSAWYNMGMTLHKKAAEDRLASTGSGQSFLARQRQATSSRREYPGHVQPATAR |
| 20 | GFP-WT-HOOK3, Q86VS8 S238E (protein) MFSVESLERAELCESLLTWIQTFNVDAPCQTVEDLTNGVVMAQVLQKIDPAYFDENWLNRIKTEVGDNWRLKISNLKKILKGILDYNHEILGQQINDFTLPDVNLIGEHSDAAELGRMLQLILGCAVNCEQKQEYIQAIMMMEESVQHVVMTAIQELMSKESPVSAGNDAYVDLDRQLKKTTEELNEALSAKEEIAQRCHELDMQVAALQEEKSSLLAENQVLMERLNQSDSIEDPNEPAGRRHLQLQTQLEQLQEETFRLEAAKDDYRIRCEELEKEISELRQQNDELTTLADEAQSLKDEIDVLRHSSDKVSKLEGQVESYKKKLEDLGDLRRQVKLLEEKNTMYMQNTVSLEEELRKANAARSQLETYKRQVVELQNRLSEESKKADKLDFEYKRLKEKVDSLQKEKDRLRTERDSLKETIEELRCVQAQEGQLTTQGLMPLGSQESSDSLAAEIVTPEIREKLIRLQHENKMLKLNQEGSDNEKIALLQSLLDDANLRKNELETENRLVNQRLLEVQSQVEELQKSLQDQGSKAEDSVLLKKKLEEHLEKLHEANNELQKKRAIIEDLEPRFNNSSLKIEELQEALRKKEEEMKQMEERYKKYLEKAKSVIRTLDPKQNQGAAPEIQALKNQLQERDRLFHSLEKEYEKTKSQREMEEKYIVSAWYNMGMTLHKKAAEDRLASTGSGQSFLARQRQATSSRRSYPGHVQPATAR |
